From US20180355043A1

Key:
Assay in all cases: MSD ECL; antigen coated; protocol of Example 3
[1] = target: DR4G104: Human HLA-DRA1*01:02/DRB1*04:02 ECD with hemagglutinin peptide HA_304-318 (human)
[2] = target: DR4G119: Human HLA-DRA1*01:02/DRB1*10:01 ECD with hemagglutinin peptide HA_304-318 (human)
[3] = target: DR4G103: Human HLA-DRA1*01:02/DRB1*15:01 ECD with hemagglutinin peptide HA_304-318 (human)

Isotype control (antibody)
ECL signal [1]: 1130 ECL | ECL signal [2]: 517 ECL | ECL signal [3]: 487 ECL
